Usually Kd stands for the constant that tells how readily two partners part at equilibrium. In general, koff refers to the rate constant with which the complex falls apart. As a reminder, the kon is the rate constant with which the complex forms. The EC50 is the concentration needed to bring the measured effect to its halfway point.

The values below come from patent publication US20220281980A1 (Bristol-Myers Squibb, published 2022).

Assay [1] addresses T1, recombinant soluble human MICA*008 antigen (human, UniProt Q29983 24-307).
T1 construct: also called huIMICA-his allele *008; recombinant soluble MICA (allele 8)
T1 chain: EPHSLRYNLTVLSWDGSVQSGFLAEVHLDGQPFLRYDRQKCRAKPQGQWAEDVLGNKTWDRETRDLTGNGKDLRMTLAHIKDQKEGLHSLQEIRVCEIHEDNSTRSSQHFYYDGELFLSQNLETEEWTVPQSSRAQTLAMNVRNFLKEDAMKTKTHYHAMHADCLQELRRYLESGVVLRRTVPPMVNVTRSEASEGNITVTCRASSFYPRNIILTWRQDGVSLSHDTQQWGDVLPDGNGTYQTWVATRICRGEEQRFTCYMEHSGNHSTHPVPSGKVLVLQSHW
The assay is described as follows: BLI (Octet) sandwich binning on soluble MICA allele 8, row antibody captured; competitor (second antibody): MICA.36. How it is done: (§1) The binning experiments were performed on an Octet HTX instrument at 25° C. in HEPES buffered saline (10 mM HEPES pH 7.4, 150 mM NaCl, 0.05% v/v surfactant P20, and 1 mg/mL BSA). Anti-MICA/B antibodies and NKG2D-mFc were captured on anti-Fc tips and remaining capture sites were blocked with an excess of negative control IgG. Recombinant soluble MICA (allele 8) was bound and subsequent binding (“sandwiching”) of anti-MICA/B antibodies was tested.

For assay [2], the target named is T1, recombinant soluble human MICA*008 …. Put plainly: BLI (Octet) sandwich binning on soluble MICA allele 8, row antibody captured; competitor (second antibody): MICA.2. How it is done: as §1
Assay [3] shares this target. Put plainly: BLI (Octet) sandwich binning on soluble MICA allele 8, row antibody captured; competitor (second antibody): MICA.38. How it is done:
as §1
On the technique in general: Biolayer interferometry detects binding as a change in optical thickness at a sensor tip.

The target of assay [4] is T2, recombinant soluble human MICA*009 antigen (human, UniProt Q29983 24-307).
T2 construct: also called huIMICA-his allele *009
T2 chain: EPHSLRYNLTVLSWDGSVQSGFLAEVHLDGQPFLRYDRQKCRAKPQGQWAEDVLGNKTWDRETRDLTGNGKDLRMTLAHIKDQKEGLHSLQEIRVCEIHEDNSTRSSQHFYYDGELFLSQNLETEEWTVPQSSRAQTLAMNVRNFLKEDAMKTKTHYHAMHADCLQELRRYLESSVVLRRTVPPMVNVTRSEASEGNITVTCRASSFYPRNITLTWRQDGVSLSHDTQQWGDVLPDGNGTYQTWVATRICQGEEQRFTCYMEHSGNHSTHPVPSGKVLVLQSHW
Put plainly: SPR (Biacore T200, 37 C), antibody captured on anti-human Fc, antigen 500 and 50 nM. The procedure: (§2) Anti-MICA/B antibodies were captured to α-human Fc surfaces. MICA allele antigens were injected at high and low nanomolar concentrations (500 nM and 50 nM, except indicated otherwise). The results for antibodies MICA.36 and MICA.38 (MICA.2 with a Ser inserted between residues 95 and 96 in the light chain) are shown in Table 2 below.
Background: In SPR one partner is held on a chip, and binding of the other changes the refractive index at the surface.

Assay [5] addresses T3, recombinant soluble human MICA*002 antigen (human, UniProt Q29983 24-307).
T3 construct: also called huIMICA-his allele *002
T3 chain: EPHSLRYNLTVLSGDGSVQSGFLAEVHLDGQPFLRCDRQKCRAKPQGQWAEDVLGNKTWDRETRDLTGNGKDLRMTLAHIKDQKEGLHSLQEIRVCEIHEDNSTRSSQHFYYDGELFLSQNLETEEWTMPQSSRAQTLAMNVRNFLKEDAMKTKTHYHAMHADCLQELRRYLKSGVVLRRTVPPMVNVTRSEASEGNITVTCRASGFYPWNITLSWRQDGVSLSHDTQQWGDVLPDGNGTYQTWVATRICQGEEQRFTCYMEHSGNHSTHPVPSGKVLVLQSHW
The description is as above. The procedure:
as §2

Assay [6] addresses T4, recombinant soluble human MICA*004 antigen (human, UniProt Q29983 24-307).
T4 construct: also called huIMICA-his allele *004
T4 chain: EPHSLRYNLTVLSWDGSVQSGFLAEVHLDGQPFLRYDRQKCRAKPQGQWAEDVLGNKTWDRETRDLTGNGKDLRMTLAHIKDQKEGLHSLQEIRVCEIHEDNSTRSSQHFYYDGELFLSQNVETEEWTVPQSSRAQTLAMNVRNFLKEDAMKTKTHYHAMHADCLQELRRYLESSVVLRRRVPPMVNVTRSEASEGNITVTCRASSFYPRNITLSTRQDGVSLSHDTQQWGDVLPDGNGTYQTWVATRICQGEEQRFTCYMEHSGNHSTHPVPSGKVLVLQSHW
The assay is described as above. How it is done: as §2

In assay [7] the target is T1, recombinant soluble human MICA*008 …. The assay is described as above. How it is done:
as §2

Assay [8] has the same target. Put plainly: BLI (Octet) sandwich binning on soluble MICA allele 8, row antibody captured; competitor (second antibody): MICA.40. The procedure:
as §1

The target is the same in assay [9]. The assay is described as follows: BLI (Octet) sandwich binning on soluble MICA allele 8, row antibody captured; competitor (second antibody): MICA.39. How it is done: as §1
Assay [10] concerns the target T2, recombinant soluble human MICA*009 …. Put plainly: SPR (Biacore 3000), antibody captured on Protein G chip, huMICA-his analyte. How it is done:
(§3) Kinetics and affinity of anti-MICA/B antibodies MICA.2, 19G6, 16A5, and 71C2 towards human MICA alleles (huIMICA-his allele *002, *004, *008, and *009) were also determined on a BIACORE 3000® instrument using the following conditions: [0571] Running Buffer: HES-EP running buffer [0572] Chip: CM5 Protein G Chip Fc1: Blank. Fc2-4: ˜200Rus [0573] Ab: 5 ug/mL, 10 uL @ 10 uL/min [0574] Ag binding: 5 min association, 7 min dissociation @ 25 uL/min, [0575] Regeneration: Glycine 1.7, 10 uL @ 100 uL/min followed by 60s wash by HES-EP

Assay [11] has as its target T3, recombinant soluble human MICA*002 …. The assay is described as above. How it is done:
as §3

For assay [12], the target named is T4, recombinant soluble human MICA*004 …. The assay is described as above. How it is done:
as §3

The target of assay [13] is T1, recombinant soluble human MICA*008 …. The description is as above. The procedure:
as §3

Assay [14] deals with T2, recombinant soluble human MICA*009 …. The assay is described as follows: SPR (Biacore 3000), antibody captured on Protein G chip, huMICA-his analyte; power of ten not given. How it is done:
as §3

Assay [15] concerns the target T3, recombinant soluble human MICA*002 …. Described as above. How it is done:
as §3

Assay [16] concerns the target T4, recombinant soluble human MICA*004 …. The description is as above. The procedure:
as §3

The target of assay [17] is T1, recombinant soluble human MICA*008 …. The description is as above. The procedure:
as §3

In assay [18] the target is T5, cynomolgus monkey MICA/B clone #4 expressed on CHO cells (cynomolgus monkey).
T5 construct: whole, on cells; also called cyno#4; CHO-cyno MICA clone #4
The assay is described as follows: flow cytometry, transfected CHO cells. (Flow cytometry measures light scatter and fluorescence of single cells or particles in a stream.)

Assay [19] has as its target T6, human MICB expressed on transduced cells (human, UniProt Q29980 23-382).
T6 construct: also called MICB*005
T6 chain: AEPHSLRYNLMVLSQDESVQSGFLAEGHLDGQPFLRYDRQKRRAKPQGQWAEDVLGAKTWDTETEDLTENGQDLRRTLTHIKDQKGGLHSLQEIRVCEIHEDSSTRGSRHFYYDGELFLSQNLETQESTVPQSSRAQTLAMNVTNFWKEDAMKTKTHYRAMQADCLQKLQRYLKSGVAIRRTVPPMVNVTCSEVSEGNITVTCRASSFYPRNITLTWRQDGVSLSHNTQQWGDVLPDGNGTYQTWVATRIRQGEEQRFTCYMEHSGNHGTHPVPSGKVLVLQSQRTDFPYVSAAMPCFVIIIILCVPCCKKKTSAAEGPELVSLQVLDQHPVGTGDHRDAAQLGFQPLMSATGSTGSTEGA
Put plainly: flow cytometry, transfected CHO cells.

Assay [20] concerns the target T7, cynomolgus monkey MICA/B clone #6 expressed on CHO cells (cynomolgus monkey).
T7 construct: whole, on cells; also called cyno#6; CHO-cyno MICA clone #6
The assay is described as follows: flow cytometry, transfected CHO cells.

Several values for one entry are separate records, joined by “and”; a condition that tells them apart may be missing. Equal entries are not always repeated.

B1: MICA.38 (antibody, V domains shown)
VH: EVQLVESGGGLVQPGGSLRLSCAASGFTFSTYSMNWVRQAPGKGLEWVSYISYRSRTIYYADSVKGRFTISRDNARNSLYLQMNSLRDEDTAVYYCARWGYGSGGFDYWGQGTLVTVSS
VL: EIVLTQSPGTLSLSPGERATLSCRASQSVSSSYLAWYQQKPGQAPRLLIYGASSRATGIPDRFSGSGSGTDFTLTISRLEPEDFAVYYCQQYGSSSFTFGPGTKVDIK
notes: MICA.2 with a Ser inserted between residues 95 and 96 in the light chain; also called MICA.38_3F5_S95k
For the molecule B1, the “simultaneous binding (0 = no, 1 = yes)” value in assay [1] was 1; in assay [2], 0; in assay [3] it was 0; in [8], 0; in assay [9], 0. For the same molecule, the Kd was 126 nM in assay [4], 123 nM in assay [5], 104 nM in assay [6] and 130 nM in [7]. Also, the koff in assay [4] came to 0.0502 s⁻¹; in assay [5] it was 0.127 s⁻¹; in assay [6] it was 0.0426 s⁻¹; in assay [7], 0.078 s⁻¹. The kon in assay [4] amounted to 397000 M⁻¹ s⁻¹; in assay [5], 1.03e+06 M⁻¹ s⁻¹; in [6] it was 410000 M⁻¹ s⁻¹; in assay [7], 600000 M⁻¹ s⁻¹.

B2: 16A5 (antibody, V domains shown)
VH: QVQLVESGGDVVQPGRSLRLSCAASGFTFSNYNIHWVRQAPGKGLEWVAVIRYDGINKYYADSVKGRFIISRDNSKNTLYLQMNSLRAEDTAVYYCASGPPDAFNIWGQGTMVTVSS
VL: AIQLTQSPSSLSASVGDRVTITCRASQGISSALAWYQQKPGKVPKSLIYDASSLESGVPSRFSGSGSGTDFTLTISSLQPEDFATYYCQQFNSYPITFGQGTRLEIK
notes: Hybridoma antibody; #1 and #2 are two hybridoma lines from the same clone; also called 16A5 (#1); 16A5 (#2)
B2: the Kd was found to be 12.9 nM in assay [10], 147 nM in [11], 6.89 nM in assay [12] and 4.55 nM in assay [13]. In addition, the koff in assay [14] was 2.15 s⁻¹; in assay [15], 0.0104 s⁻¹; in assay [16], 1.72 s⁻¹; in assay [17], 1.72 s⁻¹. Moreover, the EC50 in assay [18] is 0.856 nM and 2.38 nM; in assay [19], 8.16 nM and 21.6 nM; in assay [20], 9.26 nM and 13.8 nM.
